The results in this text go back to article PMC3001329 (Investigative ophthalmology & visual science, 2009).

The series concerns the molecule itself. The series is described as follows: SEC-MALS. (In general: SEC sorts molecules by how far they enter the pores of the column.)

B1: recombinant bovine αA-crystallin Y118D mutant (natural protein)
chain: MDIAIQHPWFKRTLGPFYPSRLFDQFFGEGLFEYDLLPFLSSTISPYYRQSLFRTVLDSGISEVRSDRDKFVIFLDVKHFSPEDLTVKVQEDFVEIHGKHNERQDDHGYISREFHRRDRLPSNVDQSALSCSLSADGMLTFSGPKIPSGVDAGHSERAIPVSREEKPSSAPSS
The term stoichiometry N denotes the number of molecules, sites or subunits per partner or assembly. For B1, the “stoichiometry N” value came out at 75 subunits.
